In patent US20190119331A1, “SYSTEM AND METHOD OF OPTOGENETICALLY CONTROLLING METABOLIC PATHWAYS FOR THE PRODUCTION OF CHEMICALS” (The Trustees of Princeton University, published 2019):

Legend:
[1] = target: Gal4p-PSD fusion protein (yeast (Saccharomyces cerevisiae); Arabidopsis thaliana) (UniProt P04386)
[2] = target: Gal4p (yeast (Saccharomyces cerevisiae), UniProt P04386); assay: cell-based or functional assay

GFP expression from PGAL1-GFP reporter (GFP/OD600), blue light against dark, strain YEZ102 (OptoINVRT3) [1]: 70 fold | GFP expression from PGAL1-GFP reporter (GFP/OD600), blue light (GAL80 expressed) against dark, strain YEZ100 (OptoINVRT1, gal4 gal80 deleted background) [2]: 45.7 fold decrease
B1: Gal80p (other)
chain: MDYNKRSSVSTVPNAAPIRVGFVGLNAAKGWAIKTHYPAILQLSSQFQITALYSPKIETSIATIQRLKLSNATAFPTLESFASSSTIDMIVIAIQVASHYEVVMPLLEFSKNNPNLKYLFVEWALACSLDQAESIYKAAAERGVQTIISLQGRKSPYILRAKELISQGYIGDINSIEIAGNGGWYGYERPVKSPKYIYEIGNGVDLVTTTFGHTIDILQYMTSSYFSRINAMVFNNIPEQELIDERGNRLGQRVPKTVPDHLLFQGTLLNGNVPVSCSFKGGKPTKKFTKNLVIDIHGTKGDLKLEGDAGFAEISNLVLYYSGTRANDFPLANGQQAPLDPGYDAGKEIMEVYHLRNYNAIVGNIHRLYQSISDFHFNTKKIPELPSQFVMQGFDFEGFPTLMDALILHRLIESVYKSNMMGSTLNVSNISHYSL
